Test results from paper doi:10.1101/2025.03.30.646141v1.

Assays:
steady-state kinetics [1] = substrate: Nc1ncnc2c1ncn2[C@@H]1O[C@H](COP(=O)(O)OP(=O)(O)OP(=O)(O)O)[C@@H](O)[C@H]1O; test: steady-state kinetics; type: biochemical, Pseudomonas aeruginosa; conditions: 100 µM kanamycin A, Tris buffer pH 7.5, Mg2+, 25 °C
steady-state kinetics [2] = substrate: Nc1nc2c(ncn2[C@@H]2O[C@H](COP(=O)(O)OP(=O)(O)OP(=O)(O)O)[C@@H](O)[C@H]2O)c(=O)[nH]1; test: steady-state kinetics; type: biochemical, Pseudomonas aeruginosa; conditions: 100 µM kanamycin A, Tris buffer pH 7.5, Mg2+, 25 °C
purified protein [3] = substrate: NC[C@@H]1O[C@H](O[C@H]2[C@@H](O)[C@H](O[C@@H]3[C@@H](O)[C@H](N)C[C@H](N)[C@H]3O[C@H]3O[C@H](CN)[C@@H](O)[C@H](O)[C@H]3N)O[C@@H]2CO)[C@H](N)[C@@H](O)[C@@H]1O; test: purified protein; conditions: 100 µM MgATP, Tris buffer pH 7.5, 25 °C
purified protein [4] = substrate: NC[C@@H]1O[C@H](O[C@H]2[C@@H](O)[C@H](O[C@@H]3[C@@H](O)[C@H](N)C[C@H](N)[C@H]3O[C@H]3O[C@H](CO)[C@@H](O)[C@H](O)[C@H]3N)O[C@@H]2CO)[C@H](N)[C@@H](O)[C@@H]1O; test: purified protein; conditions: 100 µM MgATP, Tris buffer pH 7.5, 25 °C
purified protein [5] = substrate: NC[C@H]1O[C@H](O[C@H]2[C@H](O)[C@@H](O[C@H]3O[C@H](CO)[C@@H](O)[C@H](N)[C@H]3O)[C@H](N)C[C@@H]2N)[C@H](O)[C@@H](O)[C@@H]1O; test: purified protein; conditions: 100 µM MgATP, Tris buffer pH 7.5, 25 °C
purified protein [6] = substrate: NC[C@H]1O[C@H](O[C@H]2[C@H](O[C@@H]3O[C@H](CO)[C@@H](O)[C@H]3O)[C@@H](O)[C@H](N)C[C@@H]2N)[C@H](N)[C@@H](O)[C@@H]1O; test: purified protein; conditions: 100 µM MgATP, Tris buffer pH 7.5, 25 °C
purified protein [7] = substrate: NC[C@H]1O[C@H](O[C@H]2[C@H](O)[C@@H](O[C@H]3O[C@H](CO)[C@@H](O)[C@H](N)[C@H]3O)[C@H](N)C[C@@H]2N)[C@H](N)[C@@H](O)[C@@H]1O; test: purified protein; conditions: 100 µM MgATP, Tris buffer pH 7.5, 25 °C

B1: APH(3’)-IIb WT (Pseudomonas aeruginosa PAO1) (protein)
chain: MHDAATSMPPQAPSTWADYLAGYRWRGQGEGCSAATVHRLEAARRPTLFVKQEVLSAHAELPAEIARLRWLHGAGIDCPQVLNETQSDGRQWLLMSAVPGDTLSALAQRGELEPERLVRLVAAALRRLHDLDPAACPFDHRLERRLDTVRQRVEAGLVDEADFDDDHRGRSATELYRLLLDRRPAVEDLVVAHGDACLPNLLAEGRRFSGFIDCGRLGVADRHQDLALAARDIEAELGAAWAEAFLVEYGGDIDGERLAYFRLLDEFF
B1 showed a Km (steady-state kinetics [1]) of 3 µM, a kcat (steady-state kinetics [1]) of 0.38 s⁻¹ and a Km (steady-state kinetics [2]) of 320 µM. The kcat (steady-state kinetics [2]) was 0.41 s⁻¹, the Km (purified protein [3]) was 0.27 ± 0.10 µM and the kcat (purified protein [3]) was 1.98 ± 0.17 s⁻¹. For the same protein, the Km (purified protein [4]) was 0.50 ± 0.10 µM, the kcat (purified protein [4]) was 2.64 ± 0.14 s⁻¹ and the Km (purified protein [5]) was 0.21 ± 0.10 µM. The kcat (purified protein [5]) was 0.58 ± 0.04 s⁻¹, the Km (purified protein [6]) was 1.17 ± 0.26 µM and the Km (purified protein [7]) was 0.19 ± 0.07 µM. The kcat (purified protein [7]) was 2.13 ± 0.20 s⁻¹.
